Assay results: the RNAGym collection of RNA variant scans (doi:10.1073/pnas.2313332121)

B1: TPR t1 (parent)
chain: GACCAAUCUGCCCUCAGAGCUCGAGAACAUCUUCGGAUGCAGAGGAGGCAGGCUUCGGUGGCGCGAUAGCGCCAACGUCCUCAACCUCCAAUGCAUCCCACCACAUGAUGAUGCCUGAAGAGCCUUGGUUUUUUG

Variants of: B1
Test: polymerase ribozyme fitness, log enrichment relative to wild type (log ratio); higher = more active; in vitro selection for triplet polymerase activity
Procedure, shortened: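 In triplicate, a single round of in vitro selection was run on each mutant library, PCR-built and transcribed, covering one subunit of a heterodimeric triplet polymerase ribozyme. Frozen incubation at −7 °C followed annealing with a biotinylated primer, partner subunit and triplets, and extended constructs were then gel-excised, streptavidin-captured and taken through RT-PCR. Fitness is the logarithm of genotype enrichment over wild-type enrichment, from inverse-variance-weighted replicate averages of Illumina-sequenced inputs and outputs. […] only genotypes with ≥10 input reads and ≥1 read per output were kept.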

Point of comparison: GACCAAUCUGCCCUCAGAGCUCGAGAACAUCUUCGGAUGCAGAGGAGGCAGGCUUCGGUGGCUCGAUAGAGCCAACGUCCUCAACCUCCAAUGCAUCCCACCACAUGAUGAUGCCUGAAGAGCCUUGGUUUUUUG, “polymerase ribozyme fitness (log ratio)” value -0.179. Against it:
- GACCAAUCUGCCCUCAGAGCUCGAGAACAUCUUCGGAUGCAGAGGAGGCAGGCUUCGGUGGCUCGAUAGCGCCAACGUCCUCAAACUUCAAUGCAUCCCAGCACAUGAUGAUGCAUGAAGAGCAUUGGCUUUUUG — lower, -2.52
- GACCAAUCUGCCCUCAGAGCUCGAGAACAUCUUCGGAUGCAGAGGAGGCAGGCUUCGGUGGCUCGAUAGCGCCAACGUCCUCAACCUCCAAUGCAUCCCACCACAUGAUGAUGGCUUAAGAGCCUUGGUUUUUUG — lower, -5.98
- GACCAAUCUGCCCUCAGAGCUCGAGAACAUCUUCGGAUGCAGAGGAGGCAGGCUUCGGUGGCUCGAUAGUGCCAACGUCCUCAACCUCCAAUGCAUCCCACCACAUGAUGAUGCCUGAAGAGCCUUGGUUUUUUG — lower, -0.91
- GACCAAUCUGCCCUCAGAGCUCGAGAACAUCUUCGGAUGCAGAGGAGGCAGGCUUCGGUGGCUCGAUAGCGCCAACGUCCUCAACCUCCAAUGCAUUCCACCACAUGAUGACGCCUGAAGCGCCUUGGUUUUUUG — higher, 0.0312
- GACCAAUCUGCCCUCAGAGCUCGAGAACAUCUUCGGAUGCAGAGGAGGCAGGCUUCGGUGGCUCGAUAGGGCCAACGUCCUCAACCUCCAAUGCAUCCCACCACAUGAUGAUGCCUGGAGAGCCAUGGUUUUUUG — lower, -1.35
- GACCAAUCUGCCCUCAGAGCUCGAGAACAUCUUCGGAUGCAGAGGAGGCAGGCUUCGGUGGCUCGAUAGCGCCAACGUCCUCAACCUCCAAUGCAUCCCAACACAUGAUGAUGCCUGAAGAGCCUUGGUUUUUUG — lower, -2.28
- GACCAAUCUGCCCUCAGAGCUCGAGAACAUCUUCGGAUGCAGAGGAGGCAGGCUUCGGUGGCUCGAUAGCGCCAACGUCCUCAACCUCAAAUGCAUCCCACCACAUGAUGAUGCCUGAAGAGCCUUGGUUUUUUG — lower, -2.53
- GACCAAUCUGCCCUCAGAGCUCGAGAACAUCUUCGGAUGCAGAGGAGGCAGGCUUCGGUGGCUCGAUAGCGCCAACGUCCUCAAUCUCCAAUGCAUCCCACCACAUGAUGAUGCCUGAAGAGCCUUGGUUUUUUG — lower, -2.96
- GACCAAUCUGCCCUCAGAGCUCGAGAACAUCUUCGGAUGCAGAGGAGGCAGGCUUCGGUGGCUCGAUAGCGUCAACGUCCUCAACCUCCAAUGCAUCCCACCACAUGAUGAUGCAUGAAGAGCCUUGGUUUUUUG — lower, -1.23
- GACCAAUCUGCCCUCAGAGCUCGAGAACAUCUUCGGAUGCAGAGGAGGCAGGCUUCGGUGGCUCGAUAGCGCCAACGUCCUCAACCUCCAAUGCAUCCCACCAAAUGAUGAUGCCUGAAGAGCCUUGGUUUUUUG — lower, -2.5
- GACCAAUCUGCCCUCAGAGCUCGAGAACAUCUUCGGAUGCAGAGGAGGCAGGCUUCGGUGGCUCGAUAGCGCCAACGUCCUCAACCUCCAAUGCAUCCCACCACAUGAUGAUGCCUUAAGAGCCUUGGUUUUUUG — lower, -2.02
- GACCAAUCUGCCCUCAGAGCUCGAGAACAUCUUCGGAUGCAGAGGAGGCAGGCUUCGGUGGCUCGAUAGCGCCAACGUCCUCAACCUCCAAUGCAUCCCACCACAUGAUGAUGCCUGAACAGCCUUGGUUAUUUG — higher, 0.507
- GACCAAUCUGCCCUCAGAGCUCGAGAACAUCUUCGGAUGCAGAGGAGGCAGGCUUCGGUGGCUCGAUAGCGCCAACGUCCUCAACCUCCAAUUCAUCCCACCACAUGAUGAUGCCUGAAGAGCGUUGGUUUUUUG — lower, -0.616
- GACCAAUCUGCCCUCAGAGCUCGAGAACAUCUUCGGAUGCAGAGGAGGCAGGCUUCGGUGGCUCGAUAGCGCCAACGUCCUCAACCUCCAAUGAAUCCCACCACAUGAUGAUGCCUGAAGCGCCUUGGUUUUUUG — lower, -0.515
- GACCAAUCUGCCCUCAGAGCUCGAGAACAUCUUCGGAUGCAGAGGAGGCAGGCUUCGGUGGCUCGAUAGCGCCAACGUCCUCAACCUCCAAUGCAUCCCACCACAUGAUGAUGCCUUAAGAGCCUUGGGUUUUUG — lower, -6.2
- GACCAAUCUGCCCUCAGAGCUCGAGAACAUCUUCGGAUGCAGAGGAGGCAGGCUUCGGUGGCUCGAUAGCGCCAACGUCCUCAACCUCCAAUGCAUCCCACCACAUGAUGAUGCCUGAAGAACCUUGGUUUUUUG — lower, -2.28
- GACCAAUCUGCCCUCAGAGCUCGAGAACAUCUUCGGAUGCAGAGGAGGCAGGCUUCGGUGGCUCGAUAGCGCCAACGUCCUCAAUCUCCAAUGCAUCCCACCACAUGAUUAUGCCUGAAGAGCCUUGGUUUUUUG — lower, -4.39
- GACCAAUCUGCCCUCAGAGCUCGAGAACAUCUUCGGAUGCAGAGGAGGCAGGCUUCGGUGGCUCGAUAGCGCCAACGUCCUCAACCUCCAAUGCAUCCCACCAAAUGAUGAUGCCUGAAGAGCCUUGGUUUUAUG — lower, -3.31
- GACCAAUCUGCCCUCAGAGCUCGAGAACAUCUUCGGAUGCAGAGGAGGCAGGCUUCGGUGGCUCGAUAGCGCCAACGUCCUCAACCUCCAAUACAUCCCACCACAUGAUGAUGCCUGAAGAGCAUUGGUUUUUUG — higher, 0.423
- GACCAAUCUGCCCUCAGAGCUCGAGAACAUCUUCGGAUGCAGAGGAGGCAGGCUUCGGUGGCUCGAUAGCGCUAACGUCCUCAACCUCCAAUGCAUCCCACCACAUGAUGAUGCCUGAAGAGCCUUGGUUUUUUG — lower, -2.45
